{
  "source": "patent US20260055369A1",
  "about": "“METHOD FOR GENERATING CELLS OF THE T CELL LINEAGE WITH ENGINEERING BROADLY REACTIVE HUMAN NOTCH LIGAND” (H. Lee Moffitt Cancer Center and Research Institute, Inc., priority 2022, published 2026)",
  "molecules": {"B1": {"name": "Delta^MAX: engineered human DLL4 consensus variant with 10 mutations combining DLL4.v1 and DLL4.v2 mutations; sequence matches SEQ ID NO: 4/10 (protein)", "chain": "SSVFQLQLQEFINERGVLASGRPCEPGCRTFFRVCLKHFQAVVSPGPCTFGTVSTPVLGTNSFAVRDDSSGGGRNPLQLPLNFTWPGTFSLIIEAWHAPGDDLRPEALPPDALISKFAIQGSLAVGQNWLLDEQTSTLTRLRYSYRVICSDNYYGDNCSRLCKKRNDYFGHYVCQPDGNPSCLPGWTGEYCQQPICLSGCHEQNGYCSKPAECLCRPGWQGRLCNECIPHPGCRHGTCSTPWQCLCDEGWGGLYCDQDLNYCTHHSPCKNGATCRNSGPRSYTCTCRPGYTGVDCELELSECDSNPCRNGGSCKDQEDGYHCLCPPGYYGLHCEHSTLSCADSPCFNGGSCRERNQGANYACECPPNFTGSNCE"}},
  "key": {"[1]": {"tested_on": "full-length, cell surface-expressed Notch1", "sequence (P46531 19-1664 limits assumed)": "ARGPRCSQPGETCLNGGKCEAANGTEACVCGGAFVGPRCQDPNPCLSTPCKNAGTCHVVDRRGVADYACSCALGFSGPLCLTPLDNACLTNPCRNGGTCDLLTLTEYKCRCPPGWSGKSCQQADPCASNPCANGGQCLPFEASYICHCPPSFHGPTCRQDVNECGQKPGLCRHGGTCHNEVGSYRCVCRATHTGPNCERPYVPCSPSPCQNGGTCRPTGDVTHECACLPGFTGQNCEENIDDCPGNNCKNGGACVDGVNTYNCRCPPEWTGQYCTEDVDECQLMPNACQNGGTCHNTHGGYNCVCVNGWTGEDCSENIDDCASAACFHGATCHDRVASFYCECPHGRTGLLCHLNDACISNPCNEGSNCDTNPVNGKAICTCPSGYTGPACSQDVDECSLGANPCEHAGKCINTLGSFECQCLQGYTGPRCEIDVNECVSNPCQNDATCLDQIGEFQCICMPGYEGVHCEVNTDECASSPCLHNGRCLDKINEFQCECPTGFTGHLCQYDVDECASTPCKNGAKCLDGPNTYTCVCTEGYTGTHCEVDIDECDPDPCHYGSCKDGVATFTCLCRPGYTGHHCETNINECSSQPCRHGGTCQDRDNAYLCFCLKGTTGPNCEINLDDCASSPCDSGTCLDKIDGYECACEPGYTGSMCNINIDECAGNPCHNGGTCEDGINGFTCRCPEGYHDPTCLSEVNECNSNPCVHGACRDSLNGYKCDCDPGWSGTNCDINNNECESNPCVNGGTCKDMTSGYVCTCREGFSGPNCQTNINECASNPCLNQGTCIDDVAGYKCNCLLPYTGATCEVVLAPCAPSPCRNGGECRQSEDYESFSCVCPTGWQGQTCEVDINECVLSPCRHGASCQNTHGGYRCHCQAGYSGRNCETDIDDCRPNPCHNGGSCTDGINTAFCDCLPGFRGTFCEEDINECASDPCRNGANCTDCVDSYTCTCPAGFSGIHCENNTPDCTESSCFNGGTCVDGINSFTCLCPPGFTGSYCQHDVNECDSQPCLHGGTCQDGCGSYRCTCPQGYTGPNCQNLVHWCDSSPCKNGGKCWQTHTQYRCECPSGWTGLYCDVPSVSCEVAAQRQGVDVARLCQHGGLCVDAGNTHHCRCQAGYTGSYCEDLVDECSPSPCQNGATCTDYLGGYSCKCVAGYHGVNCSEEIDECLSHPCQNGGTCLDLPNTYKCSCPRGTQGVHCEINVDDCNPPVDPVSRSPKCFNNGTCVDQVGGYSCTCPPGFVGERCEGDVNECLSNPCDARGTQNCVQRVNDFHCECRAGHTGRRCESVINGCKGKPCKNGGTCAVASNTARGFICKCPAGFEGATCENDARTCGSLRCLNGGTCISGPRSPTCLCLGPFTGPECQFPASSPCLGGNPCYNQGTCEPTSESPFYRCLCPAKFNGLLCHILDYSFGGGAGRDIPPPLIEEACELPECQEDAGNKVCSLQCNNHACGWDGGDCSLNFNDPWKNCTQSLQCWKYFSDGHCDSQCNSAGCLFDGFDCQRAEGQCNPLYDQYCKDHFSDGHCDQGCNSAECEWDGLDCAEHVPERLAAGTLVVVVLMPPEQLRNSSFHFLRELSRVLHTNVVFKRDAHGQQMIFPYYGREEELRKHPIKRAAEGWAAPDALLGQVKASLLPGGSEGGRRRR", "sequence (P46531 1665-1756 limits assumed)": "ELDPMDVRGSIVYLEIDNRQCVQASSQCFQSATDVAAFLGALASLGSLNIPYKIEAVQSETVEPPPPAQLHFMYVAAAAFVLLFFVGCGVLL", "assay": "Tetramer binding to Notch1 overexpressing CHO-K1 N1-Gal4 cells by flow cytometry", "details": "tetramers", "text": "Extended Data FIG. 5. Quantitation of mNotch1 binding to DLL4 variants, ligand adsorption, and Notch surface expression. a, SPR binding isotherms were fitted to a 1:1 binding model to determine the binding affinity between mNotch1 (6-13) and each DLL4 variant. b, Determination of plate adsorption for WT DLL4 and Delta^MAX by ELISA. Data represent mean values±s.d. of three biological replicates. c, Binding assay of WT DLL4 and Delta^MAX tetramers to Notch1 overexpressing CHO-K1 N1-Gal4 cells was measured by flow cytometry. Data represent mean values±s.d. of three biological replicates. d, The level of Notch1 expression on the surface of cell lines used in this study was determined by flow cytometry. Data represent mean values±s.d. of three biological replicates. e, Percentage of CD8^+ T cells expressing Notch1 (upper graph) and Notch2 (bottom graph) on cell surface determined by flow cytometry after stimulation with K32-WT DLL4, K32-Delta^MAX, or K32 for 96 hours. Data represent mean values±s.e.m. of three biological replicates. Delta^MAX statistics are referred to WT DLL4. *P<0.05, ****P<0.0001 (Two-way ANOVA)."}, "endogenous Notch1": {"biological_target": "T1, endogenous Notch1 (Homo sapiens, UniProt P46531)", "T1 construct": "cells expressing endogenous levels of Notch1; endogenous in cells; host or cells: U2OS; MCF-7", "T1 sequence (P46531 19-2555)": "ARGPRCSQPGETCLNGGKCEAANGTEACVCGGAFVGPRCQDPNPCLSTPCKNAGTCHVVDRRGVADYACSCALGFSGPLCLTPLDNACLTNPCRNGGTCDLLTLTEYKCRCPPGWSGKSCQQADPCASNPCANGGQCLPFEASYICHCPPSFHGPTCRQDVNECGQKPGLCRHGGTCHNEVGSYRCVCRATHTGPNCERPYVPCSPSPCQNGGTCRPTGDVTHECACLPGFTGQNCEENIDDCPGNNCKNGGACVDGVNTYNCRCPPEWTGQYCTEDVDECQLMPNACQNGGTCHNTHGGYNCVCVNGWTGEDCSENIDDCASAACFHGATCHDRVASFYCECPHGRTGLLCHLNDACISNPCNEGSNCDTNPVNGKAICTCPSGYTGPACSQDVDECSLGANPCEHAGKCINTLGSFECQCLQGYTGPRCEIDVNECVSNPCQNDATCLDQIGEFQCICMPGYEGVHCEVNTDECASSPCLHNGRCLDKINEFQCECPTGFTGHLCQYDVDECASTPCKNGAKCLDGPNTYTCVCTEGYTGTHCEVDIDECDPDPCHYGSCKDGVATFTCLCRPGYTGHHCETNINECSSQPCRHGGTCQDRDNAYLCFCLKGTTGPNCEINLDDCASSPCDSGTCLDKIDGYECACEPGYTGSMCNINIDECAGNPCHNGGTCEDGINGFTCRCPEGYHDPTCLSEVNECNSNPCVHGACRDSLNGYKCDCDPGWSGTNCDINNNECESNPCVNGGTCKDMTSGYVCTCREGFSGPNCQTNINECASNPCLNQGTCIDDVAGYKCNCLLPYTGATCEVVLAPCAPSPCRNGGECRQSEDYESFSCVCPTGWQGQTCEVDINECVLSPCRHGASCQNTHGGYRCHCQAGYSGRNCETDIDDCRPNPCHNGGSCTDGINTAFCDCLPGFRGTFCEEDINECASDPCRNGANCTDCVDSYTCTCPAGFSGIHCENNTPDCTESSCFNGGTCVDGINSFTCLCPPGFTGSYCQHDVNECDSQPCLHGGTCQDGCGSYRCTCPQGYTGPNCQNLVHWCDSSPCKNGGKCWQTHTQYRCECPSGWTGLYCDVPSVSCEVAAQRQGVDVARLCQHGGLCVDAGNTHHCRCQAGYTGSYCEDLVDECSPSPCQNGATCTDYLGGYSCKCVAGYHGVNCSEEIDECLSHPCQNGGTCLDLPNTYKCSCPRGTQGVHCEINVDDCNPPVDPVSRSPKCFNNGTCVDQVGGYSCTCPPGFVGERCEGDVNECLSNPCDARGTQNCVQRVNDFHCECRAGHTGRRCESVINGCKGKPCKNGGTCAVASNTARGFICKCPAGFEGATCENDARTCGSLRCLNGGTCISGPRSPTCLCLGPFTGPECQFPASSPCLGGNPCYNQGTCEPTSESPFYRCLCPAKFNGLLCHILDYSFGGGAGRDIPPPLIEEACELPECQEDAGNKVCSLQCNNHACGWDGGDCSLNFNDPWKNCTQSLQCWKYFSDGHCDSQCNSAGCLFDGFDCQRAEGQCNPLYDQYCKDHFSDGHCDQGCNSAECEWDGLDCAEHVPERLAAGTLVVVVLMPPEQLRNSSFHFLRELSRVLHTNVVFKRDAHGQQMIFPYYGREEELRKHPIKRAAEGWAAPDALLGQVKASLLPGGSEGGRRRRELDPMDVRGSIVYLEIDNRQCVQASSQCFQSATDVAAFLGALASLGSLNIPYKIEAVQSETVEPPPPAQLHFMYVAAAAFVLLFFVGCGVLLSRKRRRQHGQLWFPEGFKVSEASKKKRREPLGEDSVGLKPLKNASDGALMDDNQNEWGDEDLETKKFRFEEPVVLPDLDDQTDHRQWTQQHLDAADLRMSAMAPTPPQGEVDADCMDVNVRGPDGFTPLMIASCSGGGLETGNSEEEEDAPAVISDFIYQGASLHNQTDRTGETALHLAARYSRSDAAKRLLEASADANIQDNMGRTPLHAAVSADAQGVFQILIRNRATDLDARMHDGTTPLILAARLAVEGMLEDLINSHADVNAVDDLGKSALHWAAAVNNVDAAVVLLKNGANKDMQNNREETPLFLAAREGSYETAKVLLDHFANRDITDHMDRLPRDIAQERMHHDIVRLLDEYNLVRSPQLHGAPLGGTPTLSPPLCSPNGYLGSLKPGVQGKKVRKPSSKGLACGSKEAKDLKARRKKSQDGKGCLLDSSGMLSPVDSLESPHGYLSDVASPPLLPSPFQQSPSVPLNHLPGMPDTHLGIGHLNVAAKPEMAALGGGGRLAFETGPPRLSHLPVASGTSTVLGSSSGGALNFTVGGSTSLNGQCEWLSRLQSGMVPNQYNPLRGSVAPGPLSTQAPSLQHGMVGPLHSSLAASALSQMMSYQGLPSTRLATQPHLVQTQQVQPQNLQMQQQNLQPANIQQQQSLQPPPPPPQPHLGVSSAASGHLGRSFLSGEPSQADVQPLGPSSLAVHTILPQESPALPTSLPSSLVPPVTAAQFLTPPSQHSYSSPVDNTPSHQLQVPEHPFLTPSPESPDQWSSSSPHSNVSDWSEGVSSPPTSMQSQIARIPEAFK", "assay": "Western blot for cleaved Notch1 ICD in U2OS and MCF-7 cells", "format": "cell-based", "details": "50 nM C-terminally anchored, 24 hours", "experimental": "For Notch activation in U2OS and MCF-7 cells, WT DLL4 and Delta^MAX biotinylated ligands were immobilized at 50 nM in 6-well streptavidin-coated plates following a scaled-up protocol of the one described before. After 24 hours of stimulation, cells were lysed in Laemmli […] buffer (40% glycerol, 4% SDS, 250 mM Tris-HCl, 0.02% bromophenol blue, and 20% β-mercaptoethanol). Cell lysates were heated at 100° C. for 5 min, centrifuged at 21,000×g for 10 min at 4° C., and supernatants stored at −20° C. Proteins were separated by SDS-PAGE (12% Mini-PROTEAN TGX Precast Protein Gels, Bio-Rad) and transferred to PVDF membranes using an iBlot2 Gel Transfer Device (Thermo Fisher Scientific). The membranes were blocked in 3% BSA+0.1% TBS-Tween. Primary antibodies were anti-cleaved Notch1 (Val1744 rabbit mAb, Cell Signaling Technology, 1:1,000), and β-Actin (rabbit pAb, Cell Signaling Technology, 1:1,000). Secondary antibody anti-Rabbit IgG conjugated to HRP (Goat mAb, Vector Laboratories, 1:8,000) was used for detection of proteins using SuperSignal West Pico PLUS Chemiluminescent Substrate (Thermo Fisher Scientific). Images were acquired using an Amersham Imager 600 (GE Healthcare), and contrast adjusted with a curves layer."}},
  "data": [
    {"molecule": "B1", "values": [
      {"measurement": "increase of mean fluorescence intensity (MFI) of binding compared to WT DLL4", "setting": "[1]", "value": 4.7, "unit": "fold"},
      {"measurement": "Notch1 activation (cleaved Notch1 ICD) vs WT DLL4", "setting": "endogenous Notch1; MCF-7 cells", "value": "much more potently"},
      {"measurement": "Notch1 activation (cleaved Notch1 ICD) vs WT DLL4", "setting": "endogenous Notch1; U2OS cells", "value": "much more potently"}
    ]}
  ]
}
